{
  "source": "the RNAGym collection of RNA variant scans (doi:10.1021/acssynbio.7b00057)",
  "parents": {"B1": {"name": "Pistol ribozyme (parent)", "chain": "GGGUCGUUGUUCCAUAAUCGCGUGGAUAUGGCACGCAAGUUUCUACCGGGCACCGUAAAUGUCCGACUGGAGCCGUUCGGGCGGCUAUAAACAGACCUCAGGCCCGAAGCGUGGCGGCACCUGCCGCCGGUGGUAAAAAAGAUCGGAAGAGCACACGUCU"}},
  "data": [
    {"variants_of": "B1", "test": "aptazyme ON/OFF ratio, guanine; higher = stronger switching; co-transcriptional cleavage with and without guanine", "values": [
      {"variant": "U7G G9C U10A U11C C12U C13A", "aptazyme ON/OFF ratio": 1.33},
      {"variant": "U7G G9A U10G U11G C12G", "aptazyme ON/OFF ratio": 1.09},
      {"variant": "U7G G9A U10G U11G C12U", "aptazyme ON/OFF ratio": 1.16},
      {"variant": "U7G G9A U10G U11G C12A", "aptazyme ON/OFF ratio": 1.1},
      {"variant": "U7G G9A U10C U11C C12G C13A", "aptazyme ON/OFF ratio": 1.1},
      {"variant": "U7G G9A U10C U11C C12G C13U", "aptazyme ON/OFF ratio": 1.03},
      {"variant": "U7G G9A U10C U11C C12G C13G", "aptazyme ON/OFF ratio": 1.05},
      {"variant": "U7G G9A U10A U11A C12U C13A", "aptazyme ON/OFF ratio": 1.12},
      {"variant": "U7G G9A U10A U11A C12U C13G", "aptazyme ON/OFF ratio": 1.19},
      {"variant": "U7G G9A U10A U11A C12U C13U", "aptazyme ON/OFF ratio": 1.17},
      {"variant": "U7G G9A U10G C12A C13A", "aptazyme ON/OFF ratio": 1.08},
      {"variant": "U7G G9A U10G C12A C13U", "aptazyme ON/OFF ratio": 1.08},
      {"variant": "U7G G9A U10G C12A C13G", "aptazyme ON/OFF ratio": 1.15},
      {"variant": "U7G G9A U10A U11C C12A C13U", "aptazyme ON/OFF ratio": 1.21},
      {"variant": "U7G G9A U10A U11C C12A C13G", "aptazyme ON/OFF ratio": 1.1},
      {"variant": "U7G G9A U10A U11C C12A C13A", "aptazyme ON/OFF ratio": 1.13},
      {"variant": "U7G G9A U10C U11G", "aptazyme ON/OFF ratio": 1.68},
      {"variant": "U7G G9A U10C U11A", "aptazyme ON/OFF ratio": 2.37},
      {"variant": "U7G G9A U10C U11C", "aptazyme ON/OFF ratio": 1.04},
      {"variant": "U7G G9A U11C C13A", "aptazyme ON/OFF ratio": 1.11},
      {"variant": "U7G G9A U11C C13G", "aptazyme ON/OFF ratio": 1.09},
      {"variant": "U7G G9A U11C C13U", "aptazyme ON/OFF ratio": 1.14},
      {"variant": "U7G G9A U10A C13A", "aptazyme ON/OFF ratio": 1.07},
      {"variant": "U7G G9A U10A C13G", "aptazyme ON/OFF ratio": 1.06},
      {"variant": "U7G G9A U10A C13U", "aptazyme ON/OFF ratio": 1.28},
      {"variant": "U7G G9A U10A C12A C13U", "aptazyme ON/OFF ratio": 1.28},
      {"variant": "U7G G9A U10A C12A C13G", "aptazyme ON/OFF ratio": 1.14},
      {"variant": "U7G G9A U10A C12A C13A", "aptazyme ON/OFF ratio": 1.06},
      {"variant": "U7G G9A C12G C13A", "aptazyme ON/OFF ratio": 1.13},
      {"variant": "U7G G9A C12G C13U", "aptazyme ON/OFF ratio": 1.18},
      {"variant": "U7G G9A C12G C13G", "aptazyme ON/OFF ratio": 1.1},
      {"variant": "U7G G9C U10A C12G C13U", "aptazyme ON/OFF ratio": 1.28},
      {"variant": "U7G G9C U10A C12G C13G", "aptazyme ON/OFF ratio": 1.1},
      {"variant": "U7G G9C U10A C12G C13A", "aptazyme ON/OFF ratio": 1.1},
      {"variant": "U7G G9A U11C C12A C13A", "aptazyme ON/OFF ratio": 1.1},
      {"variant": "U7G G9A U11C C12A C13U", "aptazyme ON/OFF ratio": 1.26},
      {"variant": "U7G G9A U11C C12A C13G", "aptazyme ON/OFF ratio": 1.14},
      {"variant": "U7G G9A U10C C12G C13A", "aptazyme ON/OFF ratio": 1.09},
      {"variant": "U7G G9A U10C C12G C13G", "aptazyme ON/OFF ratio": 1.19},
      {"variant": "U7G G9A U10C C12G C13U", "aptazyme ON/OFF ratio": 1.27},
      {"variant": "U7G G9A U10A U11A", "aptazyme ON/OFF ratio": 2.42},
      {"variant": "U7G G9A U10A U11C", "aptazyme ON/OFF ratio": 1.09},
      {"variant": "U7G G9A U10A U11G", "aptazyme ON/OFF ratio": 2.05},
      {"variant": "U7G G9A U11A C12U C13U", "aptazyme ON/OFF ratio": 1.19},
      {"variant": "U7G G9A U11A C12U C13G", "aptazyme ON/OFF ratio": 1.17},
      {"variant": "U7G G9A U11A C12U C13A", "aptazyme ON/OFF ratio": 1.16},
      {"variant": "U7G G9C C13U", "aptazyme ON/OFF ratio": 1.45},
      {"variant": "U7G G9C C13G", "aptazyme ON/OFF ratio": 1.14},
      {"variant": "U7G G9C C13A", "aptazyme ON/OFF ratio": 1.29},
      {"variant": "U7G G9A U10G U11C C12U", "aptazyme ON/OFF ratio": 1.11},
      {"variant": "U7G G9A U10G U11C C12A", "aptazyme ON/OFF ratio": 1.12},
      {"variant": "U7G G9A U10G U11C C12G", "aptazyme ON/OFF ratio": 1.1},
      {"variant": "U7G G9C U10A U11C C12A", "aptazyme ON/OFF ratio": 1.76},
      {"variant": "U7G G9C U10A U11C C12G", "aptazyme ON/OFF ratio": 1.27},
      {"variant": "U7G G9C U10A U11C C12U", "aptazyme ON/OFF ratio": 1.46},
      {"variant": "U7G G9A U10C C12G", "aptazyme ON/OFF ratio": 1.38},
      {"variant": "U7G G9A U10C C12U", "aptazyme ON/OFF ratio": 1.59},
      {"variant": "U7G G9A U10C C12A", "aptazyme ON/OFF ratio": 1.28},
      {"variant": "U7G G9A U10G U11A C12G C13G", "aptazyme ON/OFF ratio": 1.11},
      {"variant": "U7G G9A U10G U11A C12G C13U", "aptazyme ON/OFF ratio": 1.05},
      {"variant": "U7G G9A U10G U11A C12G C13A", "aptazyme ON/OFF ratio": 1.12},
      {"variant": "U7G G9A U10G U11C C12A C13G", "aptazyme ON/OFF ratio": 1.06},
      {"variant": "U7G G9A U10G U11C C12A C13A", "aptazyme ON/OFF ratio": 1.09},
      {"variant": "U7G G9A U10G U11C C12A C13U", "aptazyme ON/OFF ratio": 1.1},
      {"variant": "U7G G9A U11G C13A", "aptazyme ON/OFF ratio": 1.11},
      {"variant": "U7G G9A U11G C13U", "aptazyme ON/OFF ratio": 1.16},
      {"variant": "U7G G9A U11G C13G", "aptazyme ON/OFF ratio": 1.1},
      {"variant": "U7G G9A U10A U11C C13G", "aptazyme ON/OFF ratio": 1.08},
      {"variant": "U7G G9A U10A U11C C13A", "aptazyme ON/OFF ratio": 1.09},
      {"variant": "U7G G9A U10A U11C C13U", "aptazyme ON/OFF ratio": 1.06},
      {"variant": "U7G G9A U10C C12U C13U", "aptazyme ON/OFF ratio": 1.19},
      {"variant": "U7G G9A U10C C12U C13A", "aptazyme ON/OFF ratio": 1.18},
      {"variant": "U7G G9A U10C C12U C13G", "aptazyme ON/OFF ratio": 1.15},
      {"variant": "U7G G9A U10G U11C C12G C13A", "aptazyme ON/OFF ratio": 1.08},
      {"variant": "U7G G9A U10G U11C C12G C13U", "aptazyme ON/OFF ratio": 1.1},
      {"variant": "U7G G9A U10G U11C C12G C13G", "aptazyme ON/OFF ratio": 1.08},
      {"variant": "U7G G9C U10A C12U C13A", "aptazyme ON/OFF ratio": 1.09},
      {"variant": "U7G G9C U10A C12U C13G", "aptazyme ON/OFF ratio": 1.05},
      {"variant": "U7G G9C U10A C12U C13U", "aptazyme ON/OFF ratio": 1.07},
      {"variant": "U7G G9A U11G C12G C13U", "aptazyme ON/OFF ratio": 1.16},
      {"variant": "U7G G9A U11G C12G C13G", "aptazyme ON/OFF ratio": 1.07},
      {"variant": "U7G G9A U11G C12G C13A", "aptazyme ON/OFF ratio": 1.07},
      {"variant": "U7G G9A U10G U11G C12G C13G", "aptazyme ON/OFF ratio": 1.16}
    ]}
  ]
}
